The nature of this series: soluble on expression in E. coli; label from the status in PepcDB or PDB records.
As for “MGSDKIHHHHHHMKALVVGACTRPVVNSLKKLNFEVYSVSHYNPVDLNADHKKYTINDKFHGHLADKYSEKELLNLSKEYVDLVDYIFVCSGIFESKTSKTPNWDVVGNSPKRIKNISDKYKTVKKLENLGFNVPVTYLVNNKYQFEKCLSELKSVVVKPISGSGGIGVTNIDFQNTDNLDINYPVLVQERIKSESYSASFIGSNFLCFNKQLINNNIYVGNISPYVLNLKNETIQEFEEVIASLDLLGMNGIDFMLKDGIPYIIEVNPRILGTYETIELSSRYNLSKAILENKPVKPKDCFFKKIVFSDKGSSYSIDKNPFLRDIPQKGTYIEEGEPVVTIIGRNMADVREMECGILRGV”, the “soluble on expression in E. coli” value is listed as “not soluble”.

Take “TPLSLTLDHWSEIRSRAHNLSVEIKKGPWRTFCASEWPTFDVGWPPEGTFDLTVIFEVKAIVFQDGPGSHPDQQPYITVWQDLVQNSPPWIK”: the “soluble on expression in E. coli” value is “soluble”.

In the case of “MAFSSRKEISSRNSERSTDDTACLRMSENGVALWCEKNVFVQENQPFVDYLPYFCSKVIGTLSIGKNLCGSFSGEKQSIPDKTIMVNIKI”, the “soluble on expression in E. coli” value is “not soluble”.

In the case of “MDSLNNGWFSELQADLWPGQSFSLKVKEVIHKEKSRFQDIQIVETETYGRCLILDGIIQCTARDEFSYQEMISFLPLCAHPNPKKVLIVGGGDGGVAREVVKHPLVEEVHQVEIDDRVVELSKQYLPAMACGFANEKLKLTIGDGFDYMKKHKNEFDVIITDSSDPIGPAVSLFQESYYELMKHALKDDGIVCSQGGSFWLDLDYIKKTMSGCKEHFAKVAYAVTSVPSYPCGHIGFVMGSLNKNQDFATPKLGKSEIDSIDLRYYSSEVHSAAFALPRWVQKHFYELEHHHHHH”, the “soluble on expression in E. coli” value is “not soluble”.

With “MVLNSMRLFYILSQRDASSKNFNSSIYSRRSSRNSGCPGALFRSGRAVPFERVVGQQYFLKAYAILHSLNICRVEAGYIFDRKKTKFQDFLRFGRAGMASGVGGGSEGGPDDVKNSYIRVNGEPEIVYQ”, the “soluble on expression in E. coli” value was “not soluble”.

As for “MGSDKIHHHHHHMRFFIAIYEENNITAAATRCYVSQPSLSAGLKQLEEELGGPLFERSKKGVKALDSAHYLYPLAVKLVEEASKLPALFMAKASRQKLRLAVMPDLSQRRLAGLLTQINQAISHLDLELVDYQSTADCRLTLDSLRHEDEVFFPLWEEDYVLCVPTEHPLAQANRIRPEELSQYDFIECPPCEAHQQTIGLLACSNLSLNLVAKADSKSLVMSLVLAGFGVSFLPDGLIEDEPRLKQIKFDGPRMFRRIGLCYPSHQAVAPTLAKLLRYLTQATA”, the “soluble on expression in E. coli” value is reported as “not soluble”.

Turning to “MAGCSMMKVDRTFPDLKEIPVDLATRFRQMIEWLEIANSECRLTPYKKISHIYQIFHSQGVLECLFRRGEDDISFMIEASVYLLDHPLDGSRSSSPTICDFAGVLPTIFVTFRNKRLGTMVSGASVEFMEFAHHIQEHIHRTSFPEIRTAEIHKISLIDVRFGNMDRNAKNIIVKVEDNIPHFVPIDHEMCFINTGQNYNLCKPYWLSLEDSSIYEA”, the “soluble on expression in E. coli” value was “soluble”.

Consider “SEQKYEEDIQKLQQEIEMLEAEQEETLRSIFVQHGDRLQQGVKSACEERGGGGAQQHTLSKLITEVRELEKDLRRQTEINGITLNECFVKTLHKSERKLIQQLRLAGHCGLLLFQVEFAVTEIQEDNVLHRRVTELNIVVDGVEFKDFSAFVSRVEDTKDLLLFFRTLRTFSERCEDRRQTFQHFQEKYPDVVNLPEGCRSEIMIIRSPQLPGISMTLFWKIHVSKEGVVKPLLDLLLKMPDQALELDTKKVMEKASDYFQSLLQLLGVEASIEGLIRTVCS”, for which the “soluble on expression in E. coli” value is on record as “soluble”.

Turning to “MLIPWQDLSPETLENLIESFVLREGTDYGEHERTLEQKVADVKRQLQCGEAVLVWSELHETVNIMPRSQFRE”, the “soluble on expression in E. coli” value was “soluble”.

Regarding “MGSDKIHHHHHHMGHDLPPLPSRDVHAVRWYVLSLPACHKGPAKGLKKELDRRVRLGEPTFDFFAPSFVEMRRREGHLVETHRPLLYNYVFIRSSVYEIFRLKRDFPLYNFLPSVDGRGSYPFVSDREMENLRWVARSYSDELPVYVPEAGYLRKGDRIRITDGRFKGVEASVVIQPGVGEREVMVCVDNWMWVPLLRVQPGEYEVISLAEEGKHVYTRLDNSRIQNGLHEALGRHWGSCGVTAADRELAAETLRTYGELQLDSAVMRCKLYSLLLPAYTILGDEERQKSLIGTIVSFLSLIRAEQSLALLLLTLYGCTDSSIYYYRAHELIDPWSRESSPKKSKLSLIRRLADYDRWLKHNE”, the “soluble on expression in E. coli” value is listed as “not soluble”.

In the case of “MTVEPFRNEPIETFQTEEARRAMREALRRVREEFGRHYPLYIGGEWVDTKERMVSLNPSAPSEVVGTTAKAGKAEAEAALEAAWKAFKTWKDWPQEDRSRLLLKAAALMRRRKRELEATLVYEVGKNWVEASADVAEAIDFIEYYARAALRYRYPAVEVVPYPGEDNESFYVPLGAGVVIAPWNFPVAIFTGMIVGPVAVGNTVIAKPAEDAVVVGAKVFEIFHEAGFPPGVVNFLPGVGEEVGAYLVEHPRIRFINFTGSLEVGLKIYEAAGRLAPGQTWFKRAYVETGGKDAIIVDETADFDLAAEGVVVSAYGFQGQKCSAASRLILTQGAYEPVLERVLKRAERLSVGPAEENPDLGPVVSAEQERKVLSYIEIGKNEGQLVLGGKRLEGEGYFIAPTVFTEVPPKARIAQEEIFGPVLSVIRVKDFAEALEVANDTPYGLTGGVYSRKREHLEWARREFHVGNLYFNRKITGALVGVQPFGGFKLSGTNAKTGALDYLRLFLEMKAVAERF”, the “soluble on expression in E. coli” value is “soluble”.

Turning to “MDVFDGLPDPIIVDILNKVGDVKTLLRCSSLSKRFNSLVPQSESLTLRLDHSVSDSPVVTSIFRSLFNGLVSLLSKPAKPITITTLSPSLPFKILSRFDRIRNLDVELPGGDVKLEKGAAVKWKAEFGKTLKSCVIVAFRSAGTVSSPVAVEGESDAEFVTGLKTRVVWTISALMAASSRHYLMREVVKEHEEIESLVMRDKEREGTVVMNEEGLKELRNTEARVEDEERVVKNKRSVVPSVRMSMRHAPSLKLKSGICLESATLVIVRPSGADFEVGDDAELATEAFVGDCMYGEAVVALLKCKKNALEMNSF”, the “soluble on expression in E. coli” value was “not soluble”.

Consider “SSFQTSLPRLPVPAVKDTVSRYLESVRPLMKEGDFQRMTALAQDFAVNLGPKLQWYLKLKSWWATNYVSDWWEEYIYLRGRGPIMVNSNYYAMEMLYITPTHIQAARAGNTIHAILLYRRTVDREELKPIRLLGSTIPLCSAQWERLFNTSRIPGEETDTIQHVKDSRHIVVYHRGRYFKVWLYHDGRLLRPRELEQQMQQILDDTSEPQPGEAKLAALTAADRVPWAKCRQTYFARGKNKQSLDAVEKAAFFVTLDESEQGYREEDPEASIDSYAKSLLHGRCFDRWFDKSITFVVFKNSKIGINAEHSWADAPIVGHLWEYVMATDVFQLGYSEDGHCKGDKNPNIPKPTRLQWDIPGECQEVIETSLSSASFLANDVDLHSFPFDTFGKGLIKKCRTSPDAFIQLALQLAHYKDMGKFCLTYEASMTRLFREGRTETVRSCTTESCNFVLAMMDPTTTAEQRFKLFKIACEKHQHLYRLAMTGAGIDRHLFCLYVVSKYLAVDSPFLKEVLSEPWRLSTSQTPQQQVELFDFEKYPDYVSCGGGFGPVADDGYGVSYIIVGENFIHFHISSKFSSPETDSHRFGKHLRQAMMDIITLFGLTANSKK”, for which the “soluble on expression in E. coli” value is “soluble”.

Regarding “GSHMAKEEIIWESLSVDVGSQGNPGIVEYKGVDTKTGEVLFEREPIPIGTNNMGEFLAIVHGLRYLKERNSRKPIYSNSQTAIKWVKDKKAKSTLVRNEETALIWKLVDEAEEWLNTHTYETPILKWQTDKWGEIKADYGRK”, the “soluble on expression in E. coli” value was “soluble”.

As to “MYIPKHFAVNDPDVAYQVIEENSFATLVSMHQRELFATHLPLLLDREKTCLYGHFARSNPQWNDIQHQTVLAIFHGPHCYISPSWYETNQAVPTWNYVAVHVYGNVELINDQGEVMQSLHDMVEKYEAPGSRYQLSEVDAGMLSGMNKGIQAFKIIIKRIEGKAKLSQNHPAHRQERIIKQLEQMPFENEKRIASLMKKQRQ”, the “soluble on expression in E. coli” value was “soluble”.

For the sequence “MKYPFYYCCDNLDIKSISVIGDFNNWDGGKNILKRHDDGTWMTEIELSPGKYRYKFLINDSILFNDPNALIYTYDDKGGTASFIIIDESNKRIINTKPASLNIESYSFLSVDKELSYCENGERKCYKDKHSSIMLKIGFSDITGLHTVNAIWYAPNNEIHEIQESVLNDGEKNENRKNEALFQININDDTIAGEWKLQIFINGSLALEDSFTVELKQPEVLDKTALDDAAMLSADLEVPDFLIEEDMQNEFEAPEFEVESNLQTNAEKEEISEEDLLGLFDDIKEIDMPEKDTSGNQKTPAPDETEMPADGNIMNLFDEIRISELKDEKAQDTENNTESTSKEAEESDSAIDELLELREFIDSSQNSEKDSIESSGGKSGEEANEEDISDIFIDIKNRTD”, the “soluble on expression in E. coli” value is reported as “not soluble”.

Turning to “MAGNAPLQQVQKKWAECQYSTPDGDEKEQCFHRAIAKTSIYLDREPGNPELTVWLAINKASLAGAQGGFGALSLAKEAKSLLEGVIATSPQTLDGSAYTSLGSLYYKVPGWPIGFGDDDKAEEMLKKALEINPKGIDPNYFYGDFLAEEGRDKEAKVYLTRAMQASPRPDRPLADKGRKLEIEATLGRLKLEHHHHHH”, the “soluble on expression in E. coli” value is “soluble”.

With “MSLNKLCMYLERPELYKQSEINFWDDEYISKQLLKAHLDTNFEGASRNFNFIEDSVNWIVTVANPANYPKLLDLGCGPGLYAEKFAQKGYKVTGIDFSKRSINYAQNRNKETNLNINYLFQSYLNMNYNEEFDLATLIYCDYGALSTENRRLLMEKIYDSLKPGGKLILDVFTINKYNNFEEIKYWEINEDGGFWSNEKYMCLQDNCKYNDYNTLEQTLVITEKDENVFYVWNHYFSKESFLLEVENIGFKSVEFFSNVKGEAYSDDSMTMGLVLQKEGHHHHHH”, the “soluble on expression in E. coli” value is recorded as “soluble”.

As to “MDALEIFKTLFSLVMRFSSYLPSNEEISDMKTTELYAFLYVALFGPKKMKEIAEFLSTTKSNVTNVVDSLEKRGLVVREMDPVDRRTYRVVLTEKGKEIFGEILSNFESLLKSVLEKFSEEDFKVVSEGFNRMVEALSREGR”, the “soluble on expression in E. coli” value is on record as “not soluble”.

“MSLWMYIHKIMKLSYKRVILTRELEDIKKDKPLFEREGFKVLELPLIQTKVLEFNLPDEEFDYIVFQSKKAVKIFLGKVNLKGNKKIVAVGKKTAEELEKLGYKADFIPENESAKGLIELFKRLPKGKVLIPRSKIGRTELIKFLKETSFEVFALDVYTTEYVFYTREELLEKLNKGDFIIFYSPSAVKAFFANLQMHKIPKDSLSLKFVAIGKTTKEELQKHSVKNVITSERPSTEDIVKKLKELARDLQKEGHHHHHH”: the “soluble on expression in E. coli” value was “soluble”.

In the case of “MLDMNPQETYTAPEEVNTPSRPIDENALLQRHQVMVKRVVNQLRVHATSHCSIEDMQQIGLIALVEAGRRYGDIDDTHFPAFAVCRVRGAILDELRRLDWRSRKTRQQAHELNDVTRDLTRSLGRMPTDSEIIKALGTDEQDYYNRQNAALAGEMQSLDQLMENSTDSHFGGQYDGMEHEHIRRSLDSALGRLSKRDQLLLTLFYQHELNLHEIALVLDLTPPRICQLHKQALKQLNQLMSS”, the “soluble on expression in E. coli” value is “not soluble”.

As to “MGHHHHHHSHVLLFVYGEPVTRPHSGPAVYFWRHRKQADLDLARGDFAQAAQQLWLALRALGRPLPTSHLDLACSLLWNLIRHLLQRLWVGRWLAGRAGGLQQDCALRVDASASARDAALVYHKLHQLHTMGKHTGGHLTATNLALSALNLAECAGDAVSVATLAEIYVAAALRVKTSLPRALHFLTRFFLSSARQACLAQSGSVPPAMQWLCHPVGHRFFVDGDWSVLSTPWESLYSLAGNPVDPLAQVTQLFREHLLERALNCVTQPNPSPGSADGDKEFSDALGYLQLLNSCSDAAGAPAYSFSISSSMATTTGVDPVAKWWASLTAVVIHWLRRDEEAAERLCPLVEHLPRVLQESERPLPRAALHSFKAARALLGCAKAESGPASLTICEKASGYLQDSLATTPASSSIDKAVQLFLCDLLLVVRTSLWRQQQPPAP”, the “soluble on expression in E. coli” value is “not soluble”.

Source of the values: the DeepSol protein solubility set.
